Measured values as given in patent WO2018087143A2 (dated 2018).

T1: mouse PD-1 (mouse, UniProt Q02242 25-167, limits assumed)
T1 construct: also called murine PD-1
T1 sequence (looked up): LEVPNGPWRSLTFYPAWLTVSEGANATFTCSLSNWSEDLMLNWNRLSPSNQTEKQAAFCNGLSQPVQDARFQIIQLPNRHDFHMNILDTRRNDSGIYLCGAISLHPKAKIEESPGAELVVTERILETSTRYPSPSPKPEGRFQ


Experiments:
[1] = target: T2, cynomolgus monkey PD-1-rCD4 (cynomolgus monkey; rat); experiment: SPR (BIAcore T100), IgG2 captured on anti-human Fc, PD-1 injected, 1:1 fit
T2 sequence (P05540 207-392): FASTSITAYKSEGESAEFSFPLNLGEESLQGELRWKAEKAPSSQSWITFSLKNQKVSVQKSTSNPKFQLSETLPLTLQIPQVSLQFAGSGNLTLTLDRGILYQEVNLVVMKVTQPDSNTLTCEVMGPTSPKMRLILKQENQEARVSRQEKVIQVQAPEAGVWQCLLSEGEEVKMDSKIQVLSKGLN

[2] = target: PD-1 expressed on Jurkat cells (NFAT-luc2/PD-1 Jurkat Cells, Promega, CS187102) (UniProt Q15116 25-288, limits assumed); experiment: cell-based or functional assay
Chain of PD-1 expressed on Jurkat cells (NFAT-luc2/PD-1 Jurkat Cells, Promega, CS187102) (Q15116 25-288 limits assumed): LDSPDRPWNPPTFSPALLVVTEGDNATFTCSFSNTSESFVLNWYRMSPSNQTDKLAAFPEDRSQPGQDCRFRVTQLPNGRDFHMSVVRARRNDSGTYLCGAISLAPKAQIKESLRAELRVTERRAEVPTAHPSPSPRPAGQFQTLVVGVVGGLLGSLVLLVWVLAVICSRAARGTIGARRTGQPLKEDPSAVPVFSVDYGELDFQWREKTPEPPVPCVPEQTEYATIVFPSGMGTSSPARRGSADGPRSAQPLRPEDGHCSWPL

[3] = target: T2, cynomolgus monkey PD-1-rCD4; experiment: SPR, ratio of KD values, Table 2
human PD-1-rCD4 [4] = target: T3, human PD-1-rCD4 (human; rat, UniProt Q15116 25-170; P05540 207-392, limits assumed); experiment: SPR (BIAcore T100), IgG2 captured on anti-human Fc, PD-1 injected, 1:1 fit
T3 construct: Analyte in SPR
T3 sequence (Q15116 other isoform, or with tags, fused parts or gaps limits assumed): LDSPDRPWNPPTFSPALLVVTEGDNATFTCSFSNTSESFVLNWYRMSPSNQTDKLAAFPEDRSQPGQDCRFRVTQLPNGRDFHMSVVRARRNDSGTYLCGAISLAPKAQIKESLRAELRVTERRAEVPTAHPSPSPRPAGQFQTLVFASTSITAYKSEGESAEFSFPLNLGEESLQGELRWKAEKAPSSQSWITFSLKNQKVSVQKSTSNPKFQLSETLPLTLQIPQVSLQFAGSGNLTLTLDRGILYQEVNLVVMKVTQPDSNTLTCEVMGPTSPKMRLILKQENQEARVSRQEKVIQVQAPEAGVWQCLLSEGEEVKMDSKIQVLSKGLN

PD-1-Fc [5] = target: T4, PD-1-Fc (UniProt Q15116 25-167, limits assumed); experiment: competition ELISA: PD-1-Fc (0.8 nM) premixed with 1 nM antibody, added to captured PD-L1-rCD4 (competitor)
T4 construct: not shown: Fc part, detected with anti-human IgG Fc
T4 sequence (Q15116 25-167 limits assumed): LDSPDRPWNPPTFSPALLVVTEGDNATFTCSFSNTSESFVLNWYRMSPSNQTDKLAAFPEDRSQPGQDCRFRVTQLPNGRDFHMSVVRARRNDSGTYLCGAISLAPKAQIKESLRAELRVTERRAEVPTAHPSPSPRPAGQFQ

PD-1-Fc [6] = target: T4, PD-1-Fc; experiment: competition ELISA: PD-1-Fc (0.8 nM) premixed with 8 nM antibody, added to captured PD-L1-rCD4 (competitor)
PD-1-Fc [7] = target: T4, PD-1-Fc; experiment: competition ELISA: PD-1-Fc (0.8 nM) premixed with 0.5 nM antibody, added to captured PD-L1-rCD4 (competitor)
mouse PD-1 = target: T1, mouse PD-1; experiment: SPR (BIAcore T100), IgG2 captured on anti-human Fc, PD-1 injected, 1:1 fit
human PD-1-rCD4 [8] = target: T3, human PD-1-rCD4; experiment: SPR (BIAcore T100), IgG2 captured on anti-human Fc, PD-1 injected, 1:1 fit; Table 1 prints 3.8
[9] = target: T2, cynomolgus monkey PD-1-rCD4; experiment: SPR (BIAcore T100), IgG2 captured on anti-human Fc, PD-1 injected, 1:1 fit; Table 1 prints 8.7

| Kd [1] [nM] | EC50, NFAT-luciferase reporter activity (PD-1/PD-L1 cell reporter assay) [2] [nM] | Fold Difference (Kd on cynomolgus PD-1 against Kd on human PD-1) [3] [fold] | koff [1] [s⁻¹] | kon [1] [M⁻¹ s⁻¹] | Kd (human PD-1-rCD4 [4]) [nM] | koff (human PD-1-rCD4 [4]) [s⁻¹] | kon (human PD-1-rCD4 [4]) [M⁻¹ s⁻¹] | % inhibition of the PD-1/PD-L1 interaction (PD-1-Fc [5]) [%] | % inhibition of the PD-1/PD-L1 interaction (PD-1-Fc [6]) [%] | % inhibition of the PD-1/PD-L1 interaction (PD-1-Fc [7]) [%] | Kd (mouse PD-1) [µM] | koff (mouse PD-1) [s⁻¹] | Kd (human PD-1-rCD4 [8]) [nM] | Kd [9] [nM] | Binder |
| --- | --- | --- | --- | --- | --- | --- | --- | --- | --- | --- | --- | --- | --- | --- | --- |
| 5.22 |  |  |  |  |  |  |  |  |  |  |  |  |  |  | Nivolumab (IgG2 format, as used in the experiments of the filing) (antibody, V domains shown) VH: QVQLVESGGGVVQPGRSLRLDCKASGITFSNSGMHWVRQAPGKGLEWVAVIWYDGSKRYYADSVKGRFTISRDNSKNTLFLQMNSLRAEDTAVYYCATNDDYWGQGTLVTVSS VL: EIVLTQSPATLSLSPGERATLSCRASQSVSSYLAWYQQKPGQAPRLLIYDASNRATGIPARFSGSGSGTDFTLTISSLEPEDFAVYYCQQSSNWPRTFGQGTKVEIKR |
| 21 | 11.7 | 2.1 | 0.0115 | 548000 | 10 | 0.0061 | 606000 | ~99 | 99 | ~75 |  |  |  |  | 273_C01_A12 (antibody, human IgG2, kappa, V domains shown) VH: EVQLVQSGAEVKKPGSSVKVSCKASGYTFTSYYVHWVRQAPGQGLEWMGGIIPIFGTANYAQKFQGRVTITADESISTAYMELSSLRSEDTAVYYCARDLHGYSYGYPGYWGQGTLVTVSS VL: DIVMTQSPLSLPVTLGQPASISCRSSQSLVYSDANTYLNWFQQRPGQSPRRLIYEVSNRESGVPDRFSGSGSATDFTLKISRVEAEDVGVYYCMQGTQLPLTFGGGTKVEIKR |
| 8.7 | 9.35 | 2.29 | 0.0034 | 387000 | 3.8 | 0.0015 | 392000 | ~99 | 99 | ~75 | 6.4 | 0.00357 | 3.84 | 8.77 | 273_C12_C05 (original clone) (antibody, human IgG2, kappa, V domains shown) VH: EVQLVQSGAEVKKPGSSVKVSCKASGYTFTSYYVHWVRQAPGQGLEWMGGIIPIFGTANYAQKFQGRVTITADESTSTAYMELSSLRSEDTAVYYCARDLHGYSYGYPGYWGQGTLVTVSS VL: DIVMTQSPLSLPVTLGQPASISCRSSQSLVYHDGNTYLNWFQQRPGQSPRRLIYEVSNRDSGVPDRFSGSGSDTDFTLKISRVEAEDVGVYYCMQGAYRPLTFGQGTKVEIKR |
